# Experimental data published in patent publication US6642040B2, “Human cGMP-stimulated cyclic nucleotide phosphodiesterase” (The Board of Regents of the University of Washington, priority 1991, dated 2003).
# Experiments:
# yeast host strain YKS45 = experiment: Yeast heat shock phenotype complementation, strain YKS45; type: cell-based, S. cerevisiae; conditions: YKS45, 56° C. for 10, 20, 30 and 45 minutes
# Protocol: The host cells used in these procedures were S. cerevisiae yeast strains 10DAB (ATCC accession No. 74049) and YKS45, both of which were pde^1- pde^2- resulting in a phenotype characterized by heat shock sensitivity, i.e., the inability of cells to survive exposure to elevated temperatures on the order of 55-56° C. In these complementation procedures, the inserted gene product was noted to conspicuously modify the heat shock phenotype.
# In a like manner, plasmid pHcgs6n (Example VI) was transformed into yeast host strain YKS45 by lithium acetate transformation. Heat shock analysis was performed as above except that the plates were initially grown two days at 30° C. and the warmed plates were maintained at 56° C. for 10, 20, 30 and 45 minutes.
# [1] = tested on: cyclic AMP and cyclic GMP hydrolysis; experiment: Phosphodiesterase assay of yeast cell extracts, second method of part D; type: biochemical, human; conditions: extracts of YKS45
# Protocol: YKS45 transformed with plasmid pHcgs6n were grown in SC-leu medium to 1-2×10^7 cells/ml. The cells were harvested by centrifugation and the cell pellets were frozen. A frozen cell pellet, typically containing 10^10 cells, was mixed with lysis buffer (25 mM Tris HCl pH 8, 5 mM EDTA, 5 mM EGTA, 1 mM o-phenathroline, 0.5 mM AEBSF, 0.01 mg/mL pepstatin, 0.01 mg/mL leupeptin, 0.01 mg/mL aprotinin, 0.1% 2-mercaptoethanol) to bring the total volume to 2.5 ml. The mixture was thawed on ice and then added to an equal volume of glass beads. The cells were disrupted by cycles of vortexing and chilling on ice, then additional lysis buffer was mixed with the disrupted cells to bring the total lysis buffer added to 5 ml. The suspension was centrifuged for 5 min. at 12,000× g. The supernatant was removed and either assayed immediately or frozen rapidly in a dry ice ethanol bath and stored at −70° C.
# Phosphodiesterase activity was assayed by mixing an aliquot of cell extract in (40 mM Tris-Cl pH 8.0, 1.mM EGTA, 0.01 mg/mL BSA) containing 5 mM MgCl2 and radioactive substrate, incubating at 30° C. for up to 30 min. and terminating the reaction with stop buffer (0.1 M ethanolamine pH 9.0, 0.5M ammonium sulfate, 10 mM EDTA, 0.05% SDS final concentration). […] The radioactive product was measured by scintillation counting.
# cAMP hydrolysis = experiment: cGS-PDE activity of PPD-S49 cells transfected with cGS-PDE cDNA; type: biochemical, bovine; conditions: zinc-treated PPD S49 cells, pZEM 228 vector
# Description: A putative phosphodiesterase-deficient (PPD) strain of S49 cells [Bourne et al., J. Cell. Physiol., 85:611-620 (1975)] was transiently transfected with the cGS-PDE cDNA using the DEAE-dextran method. The cGS-PDE cDNA was ligated into the unique BamHI cloning site in a mammalian expression vector, designated pZEM 228, following a zinc-inducible metallothionine promoter and prior to an SV40 transcription termination sequence. The DNA was purified from large-scale plasmid preparations using Qiagen pack-500 columns as directed by the manufacturer. PPD-S49 cells were cultured in DMEM containing 10% heat-inactivated horse serum, 50 μg/ml penicillin G and 50 μg/ml streptomycin sulfate at 37° C. in a water-saturated 7% CO2 atmosphere. Prior to transfections, confluent 100 mm dishes of cells were replated at one-fifth of the original density and incubated for 24-36 h. In a typical transfection experiment, PPD-S49 cells (50-80% confluent) were washed with Tris-buffered-saline and approximately 2×10^7 cells were transfected with […] of DNA mixed with 400 μg of DEAE-dextran in one ml of TBS. […]
# cGS PDE activity was determined by a previously described method using [^3H]cAMP as the substrate as in Martins et al., J. Biol. Chem., 257:1973-1979 (1982). […] The Bradford assay [Bradford, Anal. Biochem., 72:248-254 (1976)] was used to quantitate protein using BSA as the standard.
# cGS-PDE activity = cGS-PDE activity of membrane and supernatant fractions of transfected COS-7 cells; type: biochemical, bovine; conditions: most of the activity in supernatant fractions
# Description: Transient expression of the CGS-PDE cDNA in COS-7 cells was accomplished as in Example I. A 4.2 kb fragment of p3CGS-5 was isolated using HindIII and NotI and was inserted into plasmid pCDM8, which had been digested with the same enzymes. The character of products produced in COS-7 cells transformed with the p3CGS-5/pCDM8 construct is discussed in Example V, infra.
# For transient expression in COS-7 cells, a 3.8 kb fragment of pBBCGSPDE-7 was isolated using HindIII and NotI and inserted into plasmid pCDM8 which had been cut with HindIII and NotI restriction endonucleases. The recombinant pBBCGSPDE-7/CDM8 construct was used to transiently transfect COS-7 cells. The properties of the pBBCGSPDE-7/CDM8 construct and the p3CGS-5/CDM8 construct prepared in Example IV products were subsequently compared. Membrane and supernatant fractions were prepared from extracts of transfected COS-7 cells and assayed for cGS-PDE activity. […] However, a 10-fold greater percentage of total cGS-PDE activity was detected in membranes from COS-7 cell extracts transfected with the pBBCGSPDE-7/CDM8 construct than in membranes prepared from p3CGS-5/CDM8-transfected COS-7 cells.
Molecule,heat shock phenotype of transformed yeast (yeast host strain YKS45),hydrolysis of cyclic AMP and cyclic GMP by cell extracts [1],cGMP-enhanced cAMP phosphodiesterase activity (cAMP hydrolysis),cGS-PDE activity in COS-7 cell extracts (cGS-PDE activity)
pHcgs6n: yeast expression plasmid with coding region of human cGS-PDE (SEQ ID NO: 45) (protein) MGQACGHSILCRSQQYPAARPAEPRGQQVFLKPDEPPPPPQPCADSLQDALLSLGSVIDISGLQRAVKEALSAVLPRVETVYTYLLDGESQLVCEDPPHELPQEGKVREAIISQKRLGCNGLGFSDLPGKPLARLVAPLAPDTQVLVMPLADKEAGAVAAVILVHCGQLSDNEEWSLQAVEKHTLVALRRVQVLQQRGPREAPRAVQNPPEGTAEDQKGGAAYTDRDRKILQLCGELYDLDASSLQLKVLQYLQQETRASRCCLLLVSEDNLQLSCKVIGDKVLGEEVSFPLTGCLGQVVEDKKSIQLKDLTSEDVQQLQSMLGCELQAMLCVPVISRATDQVVALACAFNKLEGDLFTDEDEHVIQHCFHYTSTVLTSTLAFQKEQKLKCECQALLQVAKNLFTHLDDVSVLLQEIITEARNLSNAEICSVFLLDQNELVAKVFDGGVVDDESYEIRIPADQGIAGHVATTGQILNIPDAYAHPLFYRGVDDSTGFRTRNILCFPIKNENQEVIGVAELVNKINGPWFSKFDEDLATAFSIYCGISIAHSLLYKKVNEAQYRSHLANEMMMYHMKVSDDEYTKLLHDGIQPVAAIDSNFASFTYTPRSLPEDDTSMAILSMLQDMNFINNYKIDCPTLARFCLMVKKGYRDPPYHNWMHAFSVSHFCYLLYKNLELTNYLEDIEIFALFISCMCHDLDHRGTNNSFQVASKSVLAALYSSEGSVMERHHFAQAIAILNTHGCNIFDHFSRKDYQRMLDLMRDIILATDLAHHLRIFKDLQKMAEVGYDRNNKQHHRLLLCLLMTSCDLSDQTKGWKTTRKIAELIYKEFFSQGDLEKAMGNRPMEMMDREKAYIPELQISFMEHIAMPIYKLLQDLFPKAAELYERVASNREHWTKVSHKFTIRGLPSNNSLDFLDEEYEVPDLDGTRAPINGCCSLDAE,resistant to thermal pulse,hydrolyzed both cyclic AMP and cyclic GMP,,
cGS-PDE cDNA: expression product of bovine adrenal cortex cGS-PDE cDNA (SEQ ID NO: 39) (protein) MRRQPAASRDLFAQEPVPPGSGDGALQDALLSLGSVIDVAGLQQAVKEALSAVLPKVETVYTYLLDGESRLVCEEPPHELPQEGKVREAVISRKRLGCNGLGPSDLPGKPLARLVAPLAPDTQVLVIPLVDKEAGAVAAVILVHCGQLSDNEEWSLQAVEKHTLVALKRVQALQQRESSVAPEATQNPPEEAAGDQKGGVAYTNQDRKILQLCGELYDLDASSLQLKVLQYLQQETQASRCCLLLVSEDNLQLSCKVIGDKVLEEEISFPLTTGRLGQVVEDKKSIQLKDLTSEDMQQLQSMLGCEVQAMLCVPVISRATDQVVALACAFNKLGGDLFTDQDEHVIQHCFHYTSTVLTSTLAFQKEQKLKCECQALLQVAKNLFTHLDDVSVLLQEIITEARNLSNAEICSVFLLDQNELVAKVFDGGVVEDESYEIRIPADQGIAGHVATTGQILNIPDAYAHPLFYRGVDDSTGFRTRNILCFPIKNENQEVIGVAELVNKINGPWFSKFDEDLATAFSIYCGISIAHSLLYKKVNEAQYRSHLANEMMMYHMKVSDDEYTKLLHDGIQPVAAIDSNFASFTYTPRSLPEDDTSMAILSMLQDMNFINNYKIDCPTLARFCLMVKKGYRDPPYHNWMHAFSVSHFCYLLYKNLELTNYLEDMEIFALFISCMCHDLDHRGTNNSFQVASKSVLAALYSSEGSVMERHHFAQAIAILNTHGCNIFDHFSRKDYQRMLDLMRDIILATDLAHHLRIFKDLQKMAEVGYDRTNKQHHSLLLCLLMTSCDLSDQTKGWKTTRKIAELIYKEFFSQGDLEKAMGNRPMEMMDREKAYIPELQISFMEHIAMPIYKLLQDLFPKAAELYERVASNREHWTKVSHKFTIRGLPSNNSLDFLDEEYEVPDLDGARAPINGCCSLDAE,,,expressed cGMP-enhanced CAMP phosphodiesterase activity,produced cGS-PDE activities
